Data reported in patent US5141947A, “Fibrinolysis-enhancing agents” (Mitsubishi Kasei Corporation, priority 1984, dated 1992).

Test system: thrombus in carotid artery of rabbit
Test: in vivo thrombolysis by t-PA, rabbit carotid artery thrombus (Example 4)
Conditions: for Thrombus Protein: 2 h infusion, femoral vein, n=4, saline control 1.97 ± 0.38
Experimental: The carotid artery of a rabbit was exposed from the surrounding tissue under anesthesia by pentobarbital. The exposed artery was surrounded with absorbent cotton soaked with glacial acetic acid and allowed to stay for 3 hours to form thrombus by the damage done to the endorthelium. The thus formed thrombus was tested for dissolution. Immediately after removing out the cotton, physiological saline in which the substance to be tested had been dissolved was injected through the femoral vein. The infusion was continued over 2 hours. After the infusion, the arterial segment wherein the thrombus had been formed was cut out and the thrombus mass was removed out under a microscope. The thrombus was dissolved in alkali and the protein was quantitatively measured by phenol method.

B1: t-PA: single or double chain tissue plasminogen activator (t-PA) (protein, UniProt P00750 36-562, looked up)
Tissue-type plasminogen …: SYQVICRDEKTQMIYQQHQSWLRPVLRSNRVEYCWCNSGRAQCHSVPVKSCSEPRCFNGGTCQQALYFSDFVCQCPEGFAGKCCEIDTRATCYEDQGISYRGTWSTAESGAECTNWNSSALAQKPYSGRRPDAIRLGLGNHNYCRNPDRDSKPWCYVFKAGKYSSEFCSTPACSEGNSDCYFGNGSAYRGTHSLTESGASCLPWNSMILIGKVYTAQNPSAQALGLGKHNYCRNPDGDAKPWCHVLKNRRLTWEYCDVPSCSTCGLRQYSQPQFRIKGGLFADIASHPWQAAIFAKHRRSPGERFLCGGILISSCWILSAAHCFQERFPPHHLTVILGRTYRVVPGEEEQKFEVEKYIVHKEFDDDTYDNDIALLQLKSDSSRCAQESSVVRTVCLPPADLQLPDWTECELSGYGKHEALSPFYSERLKEAHVRLYPSSRCTSQHLLNRTVTDNMLCAGDTRSGGPQANLHDACQGDSGGPLVCLNDGRMTLVGIISWGLGCGQKDVPGVYTKVTNYLDWIRDNMRP
t-PA 0.48 mg/kg alone
  thrombolytic effect: no thrombolytic effect
  Thrombus Protein: 2.45 ± 0.81 mg
t-PA 0.96 mg/kg alone
  Thrombus Protein: 0.40 ± 0.16 mg
